Data set [1] relates to HeLa Kyoto. Nature of the data set: solubility in G1/S (NP-40 vs SDS abundance) (log2 ratio); higher = more soluble. Conditions: cell cycle stage: G1/S.
The test system of data set [2] is HeLa Kyoto. The data set is described as follows: melting temperature (median over replicates), in situ; higher = more thermally stable.
The subject of data set [3] is HeLa Kyoto. The data set is described as follows: solubility change mitosis vs G1/S (difference of NP-40 vs SDS log2 ratios) (log2 ratio difference); higher = more soluble in mitosis.
For data set [4], the system named is HeLa Kyoto. Nature of the data set: thermal stability score vs G1/S (z-score of summed log2 fold changes over temperatures); higher = more thermally stable than in G1/S.
Setting [5] is: cell cycle stage: early G1 (4.5 h after nocodazole release).
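For melting temperature (median over replicates), in situ in this document: HeLa Kyoto cells synchronized by double thymidine or nocodazole block, proteins quantified by TMT10plex mass spectrometry, three independent biological replicates.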
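For solubility change mitosis vs G1/S (difference of NP-40 vs SDS log2 ratios) in this document: synchronized HeLa Kyoto cells (double thymidine block for G1/S, nocodazole release for mitosis), protein amounts in NP-40 versus SDS lysates quantified by mass spectrometry, three biological replicates.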
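For solubility in G1/S (NP-40 vs SDS abundance) in this document: HeLa Kyoto cells arrested at G1/S by double thymidine block, proteins quantified by TMT10plex mass spectrometry in mild NP-40 versus SDS extracts, three biological replicates.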
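For thermal stability score vs G1/S (z-score of summed log2 fold changes over temperatures) in this document: synchronized HeLa Kyoto cells, proteins quantified by TMT10plex mass spectrometry, three biological replicates, mitosis taken 0.5 h after nocodazole release, G1/S directly after double thymidine block.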

As for “MSTADALDDENTFKILVATDIHLGFMEKDAVRGNDTFVTLDEILRLAQENEVDFILLGGDLFHENKPSRKTLHTCLELLRKYCMGDRPVQFEILSDQSVNFGFSKFPWVNYQDGNLNISIPVFSIHGNHDDPTGADALCALDILSCAGFVNHFGRSMSVEKIDISPVLLQKGSTKIALYGLGSIPDERLYRMFVNKKVTMLRPKEDENSWFNLFVIHQNRSKHGSTNFIPEQFLDDFIDLVIWGHEHECKIAPTKNEQQLFYISQPGSSVVTSLSPGEAVKKHVGLLRIKGRKMNMHKIPLHTVRQFFMEDIVLANHPDIFNPDNPKVTQAIQSFCLEKIEEMLENAERERLGNSHQPEKPLVRLRVDYSGGFEPFSVLRFSQKFVDRVANPKDIIHFFRHREQKEKTGEEINFGKLITKPSEGTTLRVEDLVKQYFQTAEKNVQLSLLTERGMGEAVQEFVDKEEKDAIEELVKYQLEKTQRFLKERHIDALEDKIDEEVRRFRETRQKNTNEEDDEVREAMTRARALRSQSEESASAFSADDLMSIDLAEQMANDSDDSISAATNKGRGRGRGRRGGRGQNSASRGGSQRGRADTGLETSTRSRNSKTAVSASRNMSIIDAFKSTRQQPSRNVTTKNYSEVIEVDESDVEEDIFPTTSKTDQRWSSTSSSKIMSQSQVSKGVDFESSEDDDDDPFMNTSSLRRNRR [MRE11A]”, in data set [1], the “solubility in G1/S (log2)” value is -0.0431. The values for the melting temperature in data set [2] (cell cycle stage: G1/S) and in data set [2] (cell cycle stage: mitosis) were 51.6 °C and 51.2 °C, respectively. For the same sequence, the “solubility change mitosis (log2)” value in data set [3] is -0.164. The thermal stability score in data set [4] (setting [5]) was -0.294; in data set [4] (cell cycle stage: mitosis) it was -0.527.

Regarding “MSTARTENPVIMGLSSQNGQLRGPVKPTGGPGGGGTQTQQQMNQLKNTNTINNGTQQQAQSMTTTIKPGDDWKKTLKLPPKDLRIKTSDVTSTKGNEFEDYCLKRELLMGIFEMGWEKPSPIQEESIPIALSGRDILARAKNGTGKSGAYLIPLLERLDLKKDNIQAMVIVPTRELALQVSQICIQVSKHMGGAKVMATTGGTNLRDDIMRLDDTVHVVIATPGRILDLIKKGVAKVDHVQMIVLDEADKLLSQDFVQIMEDIILTLPKNRQILLYSATFPLSVQKFMNSHLQKPYEINLMEELTLKGVTQYYAYVTERQKVHCLNTLFSRLQINQSIIFCNSSQRVELLAKKISQLGYSCFYIHAKMRQEHRNRVFHDFRNGLCRNLVCTDLFTRGIDIQAVNVVINFDFPKLAETYLHRIGRSGRFGHLGLAINLITYDDRFNLKSIEEQLGTEIKPIPSNIDKSLYVAEYHSEPVEDEKP [DDX6]”, the “solubility in G1/S (log2)” value in data set [1] was -0.136. Further, the melting temperature worked out at 51.5 °C in data set [2] (cell cycle stage: G1/S) and 51 °C in data set [2] (cell cycle stage: mitosis). Further, the “solubility change mitosis (log2)” value in data set [3] worked out at 0.0947. Further, the values for the thermal stability score in data set [4] (setting [5]) and in data set [4] (cell cycle stage: mitosis) were 0.486 and -0.288, respectively.

Turning to “MSTGTFVVSQPLNYRGGARVEPADASGTEKAFEPATGRVIATFTCSGEKEVNLAVQNAKAAFKIWSQKSGMERCRILLEAARIIREREDEIATMECINNGKSIFEARLDIDISWQCLEYYAGLAASMAGEHIQLPGGSFGYTRREPLGVCVGIGAWNYPFQIASWKSAPALACGNAMVFKPSPFTPVSALLLAEIYSEAGVPPGLFNVVQGGAATGQFLCQHPDVAKVSFTGSVPTGMKIMEMSAKGIKPVTLELGGKSPLIIFSDCDMNNAVKGALMANFLTQGQVCCNGTRVFVQKEILDKFTEEVVKQTQRIKIGDPLLEDTRMGPLINRPHLERVLGFVKVAKEQGAKVLCGGDIYVPEDPKLKDGYYMRPCVLTNCRDDMTCVKEEIFGPVMSILSFDTEAEVLERANDTTFGLAAGVFTRDIQRAHRVVAELQAGTCFINNYNVSPVELPFGGYKKSGFGRENGRVTIEYYSQLKTVCVEMGDVESAF [ALDH9A1]”, the “solubility in G1/S (log2)” value in data set [1] worked out at 0.24. The figures for the melting temperature in data set [2] (cell cycle stage: G1/S) and in data set [2] (cell cycle stage: mitosis) were 57.1 °C and 57.3 °C, respectively. In addition, in data set [3], the “solubility change mitosis (log2)” value was -0.0784. The thermal stability score in data set [4] (setting [5]) is 0.248; in data set [4] (cell cycle stage: mitosis), -0.642.

Regarding “MSTLYVSPHPDAFPSLRALIAARYGEAGEGPGWGGAHPRICLQPPPTSRTPFPPPRLPALEQGPGGLWVWGATAVAQLLWPAGLGGPGGSRAAVLVQQWVSYADTELIPAACGATLPALGLRSSAQDPQAVLGALGRALSPLEEWLRLHTYLAGEAPTLADLAAVTALLLPFRYVLDPPARRIWNNVTRWFVTCVRQPEFRAVLGEVVLYSGARPLSHQPGPEAPALPKTAAQLKKEAKKREKLEKFQQKQKIQQQQPPPGEKKPKPEKREKRDPGVITYDLPTPPGEKKDVSGPMPDSYSPRYVEAAWYPWWEQQGFFKPEYGRPNVSAANPRGVFMMCIPPPNVTGSLHLGHALTNAIQDSLTRWHRMRGETTLWNPGCDHAGIATQVVVEKKLWREQGLSRHQLGREAFLQEVWKWKEEKGDRIYHQLKKLGSSLDWDRACFTMDPKLSAAVTEAFVRLHEEGIIYRSTRLVNWSCTLNSAISDIEVDKKELTGRTLLSVPGYKEKVEFGVLVSFAYKVQGSDSDEEVVVATTRIETMLGDVAVAVHPKDTRYQHLKGKNVIHPFLSRSLPIVFDEFVDMDFGTGAVKITPAHDQNDYEVGQRHGLEAISIMDSRGALINVPPPFLGLPRFEARKAVLVALKERGLFRGIEDNPMVVPLCNRSKDVVEPLLRPQWYVRCGEMAQAASAAVTRGDLRILPEAHQRTWHAWMDNIREWCISRQLWWGHRIPAYFVTVSDPAVPPGEDPDGRYWVSGRNEAEAREKAAKEFGVSPDKISLQQDEDVLDTWFSSGLFPLSILGWPNQSEDLSVFYPGTLLETGHDILFFWVARMVMLGLKLTGRLPFREVYLHAIVRDAHGRKMSKSLGNVIDPLDVIYGISLQGLHNQLLNSNLDPSEVEKAKEGQKADFPAGIPECGTDALRFGLCAYMSQGRDINLDVNRILGYRHFCNKLWNATKFALRGLGKGFVPSPTSQPGGHESLVDRWIRSRLTEAVRLSNQGFQAYDFPAVTTAQYSFWLYELCDVYLECLKPVLNGVDQVAAECARQTLYTCLDVGLRLLSPFMPFVTEELFQRLPRRMPQAPPSLCVTPYPEPSECSWKDPEAEAALELALSITRAVRSLRADYNLTRIRPDCFLEVADEATGALASAVSGYVQALASAGVVAVLALGAPAPQGCAVALASDRCSIHLQLQGLVDPARELGKLQAKRVEAQRQAQRLRERRAASGYPVKVPLEVQEADEAKLQQTEAELRKVDEAIALFQKML [VARS]”, in data set [1], the “solubility in G1/S (log2)” value is -0.0962. For the same sequence, the values for the melting temperature in data set [2] (cell cycle stage: G1/S) and in data set [2] (cell cycle stage: mitosis) were 51 °C and 50.5 °C, respectively. In data set [3], the “solubility change mitosis (log2)” value is -0.183. The thermal stability score is -0.359 in data set [4] (setting [5]) and -0.482 in data set [4] (cell cycle stage: mitosis).

Consider “MSVGFIGAGQLAFALAKGFTAAGVLAAHKIMASSPDMDLATVSALRKMGVKLTPHNKETVQHSDVLFLAVKPHIIPFILDEIGADIEDRHIVVSCAAGVTISSIEKKLSAFRPAPRVIRCMTNTPVVVREGATVYATGTHAQVEDGRLMEQLLSSVGFCTEVEEDLIDAVTGLSGSGPAYAFTALDALADGGVKMGLPRRLAVRLGAQALLGAAKMLLHSEQHPGQLKDNVSSPGGATIHALHVLESGGFRSLLINAVEASCIRTRELQSMADQEQVSPAAIKKTILDKVKLDSPAGTALSPSGHTKLLPRSLAPAGKD [PYCR1]”, for which, in data set [1], the “solubility in G1/S (log2)” value was determined as 0.208. Moreover, the values for the melting temperature in data set [2] (cell cycle stage: G1/S) and in data set [2] (cell cycle stage: mitosis) were 54.9 °C and 53.7 °C, respectively. The “solubility change mitosis (log2)” value in data set [3] was -0.0764. The thermal stability score in data set [4] (setting [5]) was 0.0884; in data set [4] (cell cycle stage: mitosis), -3.11.

Consider “MSVLGEYERHCDSINSDFGSESGGCGDSSPGPSASQGPRAGGGAAEQEELHYIPIRVLGRGAFGEATLYRRTEDDSLVVWKEVDLTRLSEKERRDALNEIVILALLQHDNIIAYYNHFMDNTTLLIELEYCNGGNLYDKILRQKDKLFEEEMVVWYLFQIVSAVSCIHKAGILHRDIKTLNIFLTKANLIKLGDYGLAKKLNSEYSMAETLVGTPYYMSPELCQGVKYNFKSDIWAVGCVIFELLTLKRTFDATNPLNLCVKIVQGIRAMEVDSSQYSLELIQMVHSCLDQDPEQRPTADELLDRPLLRKRRREMEEKVTLLNAPTKRPRSSTVTEAPIAVVTSRTSEVYVWGGGKSTPQKLDVIKSGCSARQVCAGNTHFAVVTVEKELYTWVNMQGGTKLHGQLGHGDKASYRQPKHVEKLQGKAIRQVSCGDDFTVCVTDEGQLYAFGSDYYGCMGVDKVAGPEVLEPMQLNFFLSNPVEQVSCGDNHVVVLTRNKEVYSWGCGEYGRLGLDSEEDYYTPQKVDVPKALIIVAVQCGCDGTFLLTQSGKVLACGLNEFNKLGLNQCMSGIINHEAYHEVPYTTSFTLAKQLSFYKIRTIAPGKTHTAAIDERGRLLTFGCNKCGQLGVGNYKKRLGINLLGGPLGGKQVIRVSCGDEFTIAATDDNHIFAWGNGGNGRLAMTPTERPHGSDICTSWPRPIFGSLHHVPDLSCRGWHTILIVEKVLNSKTIRSNSSGLSIGTVFQSSSPGGGGGGGGGEEEDSQQESETPDPSGGFRGTMEADRGMEGLISPTEAMGNSNGASSSCPGWLRKELENAEFIPMPDSPSPLSAAFSESEKDTLPYEELQGLKVASEAPLEHKPQVEASSPRLNPAVTCAGKGTPLTPPACACSSLQVEVERLQGLVLKCLAEQQKLQQENLQIFTQLQKLNKKLEGGQQVGMHSKGTQTAKEEMEMDPKPDLDSDSWCLLGTDSCRPSL [NEK9]”, for which the “solubility in G1/S (log2)” value in data set [1] is -0.134. In addition, the results for the melting temperature in data set [2] (cell cycle stage: G1/S) and in data set [2] (cell cycle stage: mitosis) were 51 °C and 51.2 °C, respectively. In addition, the “solubility change mitosis (log2)” value in data set [3] is -0.102. The figures for the thermal stability score in data set [4] (setting [5]) and in data set [4] (cell cycle stage: mitosis) were 0.358 and -0.633, respectively.

These data come from the supplement of paper PMC5998384.
